Results on seven molecules are retold here after patent publication US20240158479A1 (RUTGERS THE STATE UNIVERSITY OF NEW JERSEY, published 2024).

Common to all, as to test: cell-based or functional assay
In experiment [1] the target is Omicron BA.1 spike on pseudovirus (SARS-CoV-2).
For experiment [2], the target named is Omicron BA.2 spike on pseudovirus (SARS-CoV-2).
In experiment [3] the target is Omicron BA.2.12.1 spike on pseudovirus (SARS-CoV-2).
Experiment [4] deals with Omicron BA.2.75 spike on pseudovirus (SARS-CoV-2).
For experiment [5], the target named is Omicron BA.4/5 spike on pseudovirus (SARS-CoV-2).
Experiment [6] concerns the target Omicron BA.4.6 spike on pseudovirus (SARS-CoV-2).
In experiment [7] the target is Omicron BA.1 spike on pseudovirus (SARS-CoV-2). The source holds these as a separate data set.
Experiment [8] addresses Wuhan_Hu-1 spike (B.1_614D) on pseudovirus (SARS-CoV-2, UniProt P0DTC2 14-1273).
The target in experiment [9] is Wuhan_Hu-1_D614G spike (B.1) on pseudovirus (SARS-CoV-2, UniProt P0DTC2 14-1273).
Experiment [10] has as its target Alpha spike (B.1.1.7) on pseudovirus (SARS-CoV-2).
Experiment [11] has as its target Delta spike (B.1.617.2) on pseudovirus (SARS-CoV-2).
Experiment [12] has as its target Beta spike (B.1.351) on pseudovirus (SARS-CoV-2).
The target in experiment [13] is Gamma spike (P.1) on pseudovirus (SARS-CoV-2).
Experiment [14] addresses Omicron BA.1 spike on pseudovirus (SARS-CoV-2). The source holds these as a separate data set.
Experiment [15] has as its target Omicron BA.2 spike on pseudovirus (SARS-CoV-2). This is another data set of the same source.
For experiment [16], the target named is Omicron BA.2.12.1 spike on pseudovirus (SARS-CoV-2). The source holds these as a separate data set.
Experiment [17] addresses Omicron BA.2.75 spike on pseudovirus (SARS-CoV-2). The source holds these as a separate data set.
Experiment [18] has as its target Omicron BA.4/5 spike on pseudovirus (SARS-CoV-2). This is another data set of the same source.
In experiment [19] the target is Omicron BA.4.6 spike on pseudovirus (SARS-CoV-2). The source holds these as a separate data set.
The target of experiment [20] is Omicron BQ.1.1 spike on pseudovirus (SARS-CoV-2).
The target in experiment [21] is Wuhan_Hu-1 spike (B.1_614D) on pseudovirus (SARS-CoV-2, UniProt P0DTC2 14-1273). The source holds these as a separate data set.
For experiment [22], the target named is Wuhan_Hu-1_D614G spike (B.1) on pseudovirus (SARS-CoV-2, UniProt P0DTC2 14-1273). The source holds these as a separate data set.

Several values for one entry are separate records, joined by “and”; a condition that tells them apart may be missing. Equal entries are not always repeated. Where two headings read alike, the source gives them in different places.

B1: ACOVIMAB (antibody, V domains shown)
VH: EVQLVESGPEVKKPGTSVKVSCKASGFTFTTTSSVQWVRQARGQRLEWIGWIVVGSGETEYAQNFQDRVTITSDMSTTTAYMEMSSLRSEDSAFYYCAAPYCSGGTCMDGFDLWGQGTLVSVSS
VL: EIVLTQSPGTLSLSPGERATLSCRASQSVRSNYLGWYQQKPGQAPRLLIYAASSRATGIPDRFSGSGSGTDFTLTISRLEPEDFAVYYCQQYDRSPWTFGQGTKVESKR
Consider B1, for which the “IC50, pseudovirus neutralization” value is 1 to 3 ng/mL in [1]; 1 to 3 ng/mL in experiment [2]; 1 to 3 ng/mL in experiment [3]; 1 to 3 ng/mL in [4]; 150 ng/mL and 280 ng/mL in experiment [5]; 150 ng/mL in experiment [6]. For the same molecule, the “IC50, pseudovirus neutralization” value in experiment [8] is 9 ng/mL; in experiment [9], 5.9 ng/mL; in experiment [10], 5.2 ng/mL; in [11], 5.1 ng/mL; in experiment [12] it was 2 ng/mL; in experiment [13] it was 2.9 ng/mL. Moreover, the “IC50, pseudovirus neutralization” value in experiment [14] came to 1.3 ng/mL; in experiment [15], 2.9 ng/mL; in experiment [16], 3.7 ng/mL; in experiment [17], 3.7 ng/mL; in experiment [18], 220 ng/mL; in experiment [19], 220 ng/mL. Besides, in experiment [20], the “IC50, pseudovirus neutralization” value stood at 290 ng/mL. Moreover, the “IC50 vs BA1” value in experiment [7] was 0.9 ng/ml and 60 pM.

B2: Imdevimab (antibody, V domains shown)
VH: QVQLVESGGGVVQPGRSLRLSCAASGFTFSNYAMYWVRQAPGKGLEWVAVISYDGSNKYYADSVKGRFTISRDNSKNTLYLQMNSLRTEDTAVYYCASGSDYGDYLLVYWGQGTLVTVSS
VL: QSALTQPASVSGSPGQSITISCTGTSSDVGGYNYVSWYQQHPGKAPKLMIYDVSKRPSGVSNRFSGSKSGNTASLTISGLQSEDEADYYCNSLTSISTWVFGGGTKLTVLG
Turning to B2, the entries for the “IC50, pseudovirus neutralization” value in experiment [21] and in experiment [22] were 4.8 ng/mL and 2.5 ng/mL, respectively.

B3: Bamlanivimab (antibody, V domains shown)
VH: QVQLVQSGAEVKKPGSSVKVSCKASGGTFSNYAISWVRQAPGQGLEWMGRIIPILGIANYAQKFQGRVTITADKSTSTAYMELSSLRSEDTAVYYCARGYYEARHYYYYYAMDVWGQGTAVTVSS
VL: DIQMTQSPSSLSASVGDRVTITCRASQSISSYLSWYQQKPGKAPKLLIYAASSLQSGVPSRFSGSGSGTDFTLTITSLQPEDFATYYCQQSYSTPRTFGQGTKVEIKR
With B3, the “IC50, pseudovirus neutralization” value in experiment [21] is 5.3 ng/mL; in [22], 2 ng/mL.

B4: Etesevimab (antibody, V domains shown)
VH: EVQLVESGGGLVQPGGSLRLSCAASGFTVSSNYMSWVRQAPGKGLEWVSVIYSGGSTFYADSVKGRFTISRDNSMNTLFLQMNSLRAEDTAVYYCARVLPMYGDYLDYWGQGTLVTVSS
VL: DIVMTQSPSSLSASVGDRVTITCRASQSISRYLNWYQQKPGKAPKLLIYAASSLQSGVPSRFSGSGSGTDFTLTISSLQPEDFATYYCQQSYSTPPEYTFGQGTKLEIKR
Take B4: the “IC50, pseudovirus neutralization” value was 12 ng/mL in experiment [21] and 6.6 ng/mL in [22].

B5: Tixagevimab (antibody, V domains shown)
VH: QMQLVQSGPEVKKPGTSVKVSCKASGFTFMSSAVQWVRQARGQRLEWIGWIVIGSGNTNYAQKFQERVTITRDMSTSTAYMELSSLRSEDTAVYYCAAPYCSSISCNDGFDIWGQGTMVTVSS
VL: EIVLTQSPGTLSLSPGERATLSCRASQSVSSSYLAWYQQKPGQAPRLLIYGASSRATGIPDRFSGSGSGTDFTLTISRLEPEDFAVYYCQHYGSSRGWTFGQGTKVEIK
In the case of B5, the “IC50, pseudovirus neutralization” value in [21] worked out at 3.2 ng/mL; in [22] it was 1.2 ng/mL.

B6: Bebtelovimab (antibody, V domains shown)
VH: QITLKESGPTLVKPTQTLTLTCTFSGFSLSISGVGVGWLRQPPGKALEWLALIYWDDDKRYSPSLKSRLTISKDTSKNQVVLKMTNIDPVDTATYYCAHHSISTIFDHWGQGTLVTVSS
VL: QSALTQPASVSGSPGQSITISCTATSSDVGDYNYVSWYQQHPGKAPKLMIFEVSDRPSGISNRFSGSKSGNTASLTISGLQAEDEADYYCSSYTTSSAVFGGGTKLTVLG
Regarding B6, the “IC50, pseudovirus neutralization” value stood at 2.8 ng/mL in experiment [21] and 1.9 ng/mL in experiment [22].

B7: Casirivimab (antibody, V domains shown)
VH: QVQLVESGGGLVKPGGSLRLSCAASGFTFSDYYMSWIRQAPGKGLEWVSYITYSGSTIYYADSVKGRFTISRDNAKSSLYLQMNSLRAEDTAVYYCARDRGTTMVPFDYWGQGTLVTVSS
VL: DIQMTQSPSSLSASVGDRVTITCQASQDITNYLNWYQQKPGKAPKLLIYAASNLETGVPSRFSGSGSGTDFTFTISGLQPEDIATYYCQQYDNLPLTFGGGTKVEIK
Regarding B7, the figures for the “IC50, pseudovirus neutralization” value in experiment [21] and in experiment [22] were 6.2 ng/mL and 2.3 ng/mL, respectively.
